Consider two molecules from US12391751B2, “Antibody against advanced glycation end products and use thereof” (Bloom Technology Corporation, priority 2018, dated 2025).

What all share (format): binding
Assay [1] has as its target T1, GO-AGEs-BSA (Bos taurus, UniProt P02769). The assay is described as follows: Specificity of SJ-5 by competitive ELISA (Example 7). To be noted: GAL13-BSA or Glycer-AGEs-BSA immobilized, POD-labeled SJ-5 0.4 μg/mL. On the procedure:
(§1) GAL13-BSA or Glycer-AGEs-BSA prepared into 1 μg/mL with PBS (pH 7.4) was added as an immobilized antigen at 100 μL/well to a 96-well microtiter plate (NUNC) and left at 25° C. for 1 hour. The antigen was immobilized overnight at 4° C. The plate was washed three times with PBS containing 0.05% (v/v) Tween 20 (PBS-T) and then blocked with a carbonate buffer solution (pH 9.5) containing 0.5% (w/v) gelatin for 1 hour. A POD-labeled SJ-5 antibody (0.4 μg/mL) was prepared under the same conditions as in Example 6. In order to confirm specificity, BSA containing AGEs derived from glucose (Glu-AGEs-BSA), BSA containing AGEs derived from glycolaldehyde (Glycol-AGEs-BSA), BSA containing AGEs derived from methylglyoxal (MGO-AGEs-BSA), BSA containing AGEs derived from glyoxal (GO-AGEs-BSA), BSA containing N^ε-carboxymethyllysine (CML-BSA), BSA containing N^ε-carboxyethyllysine (CEL-BSA), and bovine serum albumin (BSA) were added at 50 μL/well to the antigen-immobilized plate in the same way as above, and the POD-labeled SJ-5 antibody (50 μL) was further added thereto, and stirred with a plate mixer, and then left standing at room temperature for 1 hour. After washing, an o-phenylenediamine solution (100 μL) prepared into 0.5 mg/mL with a 0.1 M citrate-phosphate buffer solution (pH 5.0) containing 0.02% (w/v) hydrogen peroxide was added to each well and left standing at 25° C. for 10 minutes. Then, color reaction was terminated by the addition of a 1 M sulfuric acid solution (50 μL) to each well. Then, absorbance at 490 nm was measured with a microplate reader.
For orientation: In an ELISA, binding on a coated surface is turned into a signal by an enzyme label.

Assay [2] has as its target T2, Glu-AGEs-BSA (Bos taurus, UniProt P02769). Described as above. To be noted: GAL13-BSA or Glycer-AGEs-BSA immobilized, POD-labeled SJ-5 0.4 μg/mL. On the procedure: as §1
Assay [3] concerns the target T3, Glycer-AGEs-BSA (Bos taurus, UniProt P02769). Described as above. Conditions: GAL13-BSA or Glycer-AGEs-BSA immobilized, POD-labeled SJ-5 0.4 μg/mL. On the procedure: as §1
The target of assay [4] is T4, MGO-AGEs-BSA (Bos taurus, UniProt P02769). The assay is described as above. Conditions: GAL13-BSA or Glycer-AGEs-BSA immobilized, POD-labeled SJ-5 0.4 μg/mL. On the procedure: as §1
Assay [5] concerns the target T5, Glycol-AGEs-BSA (Bos taurus, UniProt P02769). The assay is described as above. Conditions: GAL13-BSA or Glycer-AGEs-BSA immobilized, POD-labeled SJ-5 0.4 μg/mL. As for the experimental part: as §1
The next assay concerns the target CEL-BSA (Bos taurus, UniProt P02769). The description is as above. Conditions: GAL13-BSA or Glycer-AGEs-BSA immobilized, POD-labeled SJ-5 0.4 μg/mL. On the procedure:
as §1

The target of a further assay is CML-BSA (Bos taurus, UniProt P02769). The assay is described as above. To be noted: GAL13-BSA or Glycer-AGEs-BSA immobilized, POD-labeled SJ-5 0.4 μg/mL. As for the experimental part: as §1
The target in assay [6] is T1, GO-AGEs-BSA. As to the kind of experiment: Specificity of PB-1 by competitive ELISA (Example 30). Conditions: A-peak-BSA or Glycer-AGEs-BSA immobilized, competitor 10 μg/mL, PB-1 0.05 μg/mL. On the procedure:
(§2) A-peak-BSA or Glycer-AGEs-BSA prepared into a concentration of 1 μg/mL with a coating solution (Example 13) was added at 100 μL/well to a 96-well microtiter plate (Costar) and immobilized overnight at 4° C.
(§3) The plate was washed three times with PBS containing 0.05% (v/v) Tween 20 (PBS-T) and then blocked with PBS-T containing 0.5% (w/v) gelatin for 1 hour.
(§4) Bovine serum albumin (BSA), BSA containing AGEs derived from glucose (Glu-AGEs-BSA), BSA containing AGEs derived from fructose (Fru-AGEs-BSA), BSA containing AGEs derived from glycolaldehyde (Glycol-AGEs-BSA), BSA containing AGEs derived from glyceraldehyde (Glycer-AGEs-BSA), BSA containing NE-carboxyethyllysine (CEL-AGEs-BSA), BSA containing NE-carboxymethyllysine (CML-AGEs-BSA), BSA containing AGEs derived from glyoxal (GO-AGEs-BSA), BSA containing AGEs derived from methylglyoxal (MGO-AGEs-BSA), and A-peak-BSA diluted into 10 μg/mL with PBS-T containing 0.1% (w/v) gelatin were each added at 50 μL/well to the antigen-immobilized plate, and the PB-1 antibody diluted into 0.05 μg/mL with PBS-T containing 0.1% (w/v) gelatin was further added at 50 μL/well, stirred with a plate mixer, and then left standing at room temperature for 1 hour.
(§5) After washing, peroxidase-labeled anti-mouse IgG (H+L) polyclonal antibody, F(ab′)2 fragment (Kirkegaard & Perry Laboratories, Inc.) diluted into 0.05 μg/mL with PBS-T containing 0.1% (w/v) gelatin was added at 100 μL/well and left standing at room temperature for 1 hour.
(§6) After washing, ELISA POD substrate TMB kit (Nacalai Tesque, Inc.) was added at 100 μL/well and left standing at room temperature in the dark. Ten minutes later, color development was terminated by the addition of 2 N sulfuric acid (50 μL/well). Absorbance was measured at a dominant wavelength of 450 nm and a sub-wavelength of 650 nm with a microplate reader (Cytation 5, BioTek Instrument Inc.), and the absorbance at the sub-wavelength was subtracted from the absorbance at the dominant wavelength.
(§7) The ordinate of the graph depicts change in absorbance relative to that of control BSA defined as 1. When A-peak-BSA and Glycer-AGEs-BSA were immobilized, the novel monoclonal antibody PB-1 was also positive to Glycol-AGEs-BSA, Glycer-AGEs-BSA, and A-peak-BSA and negative to Glu-AGEs-BSA, Fru-AGEs-BSA, CEL-AGEs-BSA, CML-AGEs-BSA, GO-AGEs-BSA, and MGO-AGEs-BSA in terms of specificity.

Assay [7] has as its target T2, Glu-AGEs-BSA. The assay is described as above. To be noted: A-peak-BSA or Glycer-AGEs-BSA immobilized, competitor 10 μg/mL, PB-1 0.05 μg/mL. As for the experimental part: as §2, §3, §4, §5, §6, §7
Assay [8] has as its target T3, Glycer-AGEs-BSA. Described as above. Conditions: A-peak-BSA or Glycer-AGEs-BSA immobilized, competitor 10 μg/mL, PB-1 0.05 μg/mL. As for the experimental part: as §2, §3, §4, §5, §6, §7
For assay [9], the target named is T4, MGO-AGEs-BSA. The assay is described as above. To be noted: A-peak-BSA or Glycer-AGEs-BSA immobilized, competitor 10 μg/mL, PB-1 0.05 μg/mL. As for the experimental part: as §2, §3, §4, §5, §6, §7
The target of the next assay is CML-AGEs-BSA (Bos taurus, UniProt P02769). The description is as above. Conditions: A-peak-BSA or Glycer-AGEs-BSA immobilized, competitor 10 μg/mL, PB-1 0.05 μg/mL. As for the experimental part:
as §2, §3, §4, §5, §6, §7

The target of assay [10] is T5, Glycol-AGEs-BSA. Described as above. To be noted: A-peak-BSA or Glycer-AGEs-BSA immobilized, competitor 10 μg/mL, PB-1 0.05 μg/mL. On the procedure:
as §2, §3, §4, §5, §6, §7

The next assay deals with CEL-AGEs-BSA (Bos taurus, UniProt P02769). The assay is described as above. To be noted: A-peak-BSA or Glycer-AGEs-BSA immobilized, competitor 10 μg/mL, PB-1 0.05 μg/mL. As for the experimental part: as §2, §3, §4, §5, §6, §7
Another assay deals with A-peak-BSA (Bos taurus, UniProt P02769). The assay is described as above. To be noted: A-peak-BSA or Glycer-AGEs-BSA immobilized, competitor 10 μg/mL, PB-1 0.05 μg/mL. On the procedure: as §2, §3, §4, §5, §6, §7
A-peak-BSA, sequence (P02769 25-607): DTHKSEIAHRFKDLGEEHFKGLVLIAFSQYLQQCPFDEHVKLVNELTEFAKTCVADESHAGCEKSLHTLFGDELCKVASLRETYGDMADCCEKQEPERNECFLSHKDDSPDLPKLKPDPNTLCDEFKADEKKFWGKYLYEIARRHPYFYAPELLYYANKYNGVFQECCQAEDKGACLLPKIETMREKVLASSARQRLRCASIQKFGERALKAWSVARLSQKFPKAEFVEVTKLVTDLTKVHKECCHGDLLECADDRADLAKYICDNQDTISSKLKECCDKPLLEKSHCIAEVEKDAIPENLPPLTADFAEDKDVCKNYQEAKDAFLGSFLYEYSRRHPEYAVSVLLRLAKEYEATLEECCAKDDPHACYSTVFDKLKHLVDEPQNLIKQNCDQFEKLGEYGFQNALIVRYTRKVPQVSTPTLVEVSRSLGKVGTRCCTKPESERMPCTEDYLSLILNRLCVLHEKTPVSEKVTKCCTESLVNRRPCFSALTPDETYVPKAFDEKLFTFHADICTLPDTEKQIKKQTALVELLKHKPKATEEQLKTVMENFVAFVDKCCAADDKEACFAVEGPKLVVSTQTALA

T5 sequence (P02769 25-607): as above
T4 sequence (P02769 25-607): as above
T2 sequence (P02769 25-607): as above
T3 sequence (P02769 25-607): as above
T1 sequence (P02769 25-607): as above
CML-AGEs-BSA, sequence (P02769 25-607): as above
CEL-BSA, sequence (P02769 25-607): as above
CEL-AGEs-BSA, sequence (P02769 25-607): as above
CML-BSA, sequence (P02769 25-607): as above

B1: SJ-5: mouse monoclonal antibody raised against GAL13-MSA; heavy-chain variable region SEQ ID NO 4, light-chain variable region SEQ ID NO 8 (antibody, listed as Mus musculus, V domains shown)
VH: EVMLVESGGRLVKPGGSLKLSCAASGFTFSSYGMSWVRQTPEKRLEWVATISGGGSYTYYPDSVKGRFTISRDNVKNNLYLQMSSLRSEDTALYYCARRGAYGDYGWFAYWGQGTLVTVSA
VL: DIVLTQSPATLSVTPGDSVSLSCRASQSINNNLHWYQQKSHESPRLLIKCASQSISGIPSRFSGSGSGTDFTLSINSVETEDFGMYFCQQSNSWPLTFGAGTKLELK
As for B1, the “specificity: reactivity with GO-AGEs-BSA” value with GO-AGEs-BSA [1] is recorded as “negative”. Also, the “specificity: reactivity with Glu-AGEs-BSA” value with Glu-AGEs-BSA [2] is recorded as “negative”. Further, the “specificity: reactivity with Glycer-AGEs-BSA” value with Glycer-AGEs-BSA [3] is “positive”. In addition, in the assay with MGO-AGEs-BSA [4], the “specificity: reactivity with MGO-AGEs-BSA” value is “negative”. For the same molecule, the “specificity: reactivity with Glycol-AGEs-BSA” value in the assay with Glycol-AGEs-BSA [5] is given as “positive”. Also, in the assay with CEL-BSA, the “specificity: reactivity with CEL-BSA” value was “negative”. The “specificity: reactivity with CML-BSA” value with CML-BSA is given as “negative”.

B2: PB-1: mouse monoclonal antibody raised against A-peak-BSA; heavy-chain variable region SEQ ID NO 18, light-chain variable region SEQ ID NO 22 (antibody, listed as Mus musculus, V domains shown)
VH: EVRLQQSGPELVKPGTSVKISCKASGYSFTGYYMHWVKQSPVKSLEWIGRIIPYNGATSYNQNFKDKASLTVDKSSRTAYMDLHSLTSEDSAVYYCARSRYYGRAPYYFDYWGQGTTLTVSS
VL: DVVVTQTPLSLPVSLGDQASISCRSSQSIVHSNGNTYLEWYLQKPGQSPKLLIYKVSNRFSGVPDRISGSGSGTDFTLKISRVEAGDLGVYSCFQGSHVPFTFGSGTKLEIK
As to B2, the “specificity: reactivity with GO-AGEs-BSA” value with GO-AGEs-BSA [6] is listed as “negative”. Further, the “specificity: reactivity with Glu-AGEs-BSA” value with Glu-AGEs-BSA [7] is recorded as “negative”. In the assay with Glycer-AGEs-BSA [8], the “specificity: reactivity with Glycer-AGEs-BSA” value is given as “positive”. For the same molecule, the “specificity: reactivity with MGO-AGEs-BSA” value with MGO-AGEs-BSA [9] is “negative”. In addition, the “specificity: reactivity with CML-AGEs-BSA” value with CML-AGEs-BSA is “negative”. In the assay with Glycol-AGEs-BSA [10], the “specificity: reactivity with Glycol-AGEs-BSA” value is “positive”. Moreover, the “specificity: reactivity with CEL-AGEs-BSA” value with CEL-AGEs-BSA is “negative”. The “specificity: reactivity with A-peak-BSA” value in the assay with A-peak-BSA is on record as “positive”.
